Experiments:
SIRP = SIRP (Homo sapiens, UniProt P78324); settings: cited from earlier work
CD47 [1] = target: T1, CD47 (Homo sapiens, UniProt Q08722); settings: cited from earlier work
CD47 [2] = target: T1, CD47; settings: cited from earlier work; remark: listed apart in the source
CD47−/− macrophages = test: In vitro osteoclast differentiation, actin ring and bone resorption assays at high RANKL dose; assay type: cell-based, mouse; settings: RANKL increased two-fold to 100 ng/ml; 50 ng/ml M-CSF
Procedure: A. FACS analysis on WT and CD47-/- total bone marrow. WT and CD47-/- total bone marrow was stained for CD47 and F4/80. B. QPCR graph showing induction of CD47 transcript over the 7-day course of OC differentiation. C. Representative images of day 5 OCs cultured on bone and stained for TRAP (left panel) and cultured on bovine bone and stained for actin rings (right panel) in the presence of 50 ng/ml of M-CSF and 50 ng/ml or 100 ng/ml of RANKL are shown. D. Representative images of day 5 OCs cultured on bone and stained for resorption lacunae in the presence of 50 ng/ml of M-CSF and either 50 ng/ml of RANKL (left panel) and 100 ng/ml of RANKL (right panel) are shown. E. The pit (resorption lacunae) area was measured by histomorphometry. 50 ng/ml RANKL (p=0.04), 100 ng/ml RANKL (p=0.18). To investigate if the OC defect is cell-autonomous in CD474-/- mice, it was first determined if macrophages or OC precursors were decreased in CD47-/- bone marrow. WT and CD47-/- whole bone marrow were stained with CD47-FITC as control and F4/80 as a macrophage marker and carried out flow cytometry. No significant difference in F4/80+cells in CD47-/- bone marrow compared to WT control was observed (FIG. 3A). To test the differentiation of macrophages to OCs, we cultured whole bone marrow in M-CSF alone for 3 days to enrich for macrophages. […]

CD47−/− mice = test: In vivo RANKL injections, serum CTX and calvarial TRAP staining; design: species or system mouse; settings: RANKL injected subperiostally into midline calvaria of 8-week old mice, once a day for 5 days
Procedure: A. 100 μg of RANKL was delivered subperiostally onto the midline calvaria of WT (n=5) and CD47−/− (n=5) mice. Serum CTX was measured before and after RANKL injections. WT vs. CD47−/− pre-RANKL p<0.01, WT vs. CD47−/− post-RANKL p=0.74, WT pre-RANKL vs. post-RANKL p=0.03, CD47−/− pre-RANKL vs. post-RANKL p<0.01. B. Representative images of TRAP stained calvarial sections. Arrows point to recruited OCs.
We measured serum CTX pre and post-RANKL injections in these mice. Pre-RANKL injection, CD47−/− mice had lower serum CTX as we have shown before (FIG. 4A). […] Furthermore, direct visualization of OC recruitment by TRAP staining on histological sections of calvarial bone in WT and CD47−/− mice confirmed the CTX results (FIG. 4B). We conclude that a high dose of RANKL rescued the cell-autonomous OC defect in CD47−/− mice.
CTX was measured from WT or CD47−/− mouse fasting serum by using a CTX ELISA system (Nordic Bioscience Diagnostics, Herlev, Denmark).
100 μg of RANKL in a volume of 40 μl was injected subperiostially in the midline calvaria in 8 week-old mice once a day for 5 consecutive days. On the sixth day, serum was collected, mice were sacrificed and the calvarial bone was isolated. TRAP staining was performed on fixed, decalcified and paraffin-embedded calvarial bone.

T1 sequence (Q08722 19-323, species assumed): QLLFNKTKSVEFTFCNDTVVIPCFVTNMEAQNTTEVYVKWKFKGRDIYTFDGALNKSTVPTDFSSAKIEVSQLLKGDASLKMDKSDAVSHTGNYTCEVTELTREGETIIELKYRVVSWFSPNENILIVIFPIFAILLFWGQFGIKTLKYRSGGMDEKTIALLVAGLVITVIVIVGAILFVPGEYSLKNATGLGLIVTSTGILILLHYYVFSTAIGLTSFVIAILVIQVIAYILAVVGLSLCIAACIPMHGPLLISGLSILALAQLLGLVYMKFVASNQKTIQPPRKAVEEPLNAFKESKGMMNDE
Chain of SIRP (P78324 31-504, species assumed): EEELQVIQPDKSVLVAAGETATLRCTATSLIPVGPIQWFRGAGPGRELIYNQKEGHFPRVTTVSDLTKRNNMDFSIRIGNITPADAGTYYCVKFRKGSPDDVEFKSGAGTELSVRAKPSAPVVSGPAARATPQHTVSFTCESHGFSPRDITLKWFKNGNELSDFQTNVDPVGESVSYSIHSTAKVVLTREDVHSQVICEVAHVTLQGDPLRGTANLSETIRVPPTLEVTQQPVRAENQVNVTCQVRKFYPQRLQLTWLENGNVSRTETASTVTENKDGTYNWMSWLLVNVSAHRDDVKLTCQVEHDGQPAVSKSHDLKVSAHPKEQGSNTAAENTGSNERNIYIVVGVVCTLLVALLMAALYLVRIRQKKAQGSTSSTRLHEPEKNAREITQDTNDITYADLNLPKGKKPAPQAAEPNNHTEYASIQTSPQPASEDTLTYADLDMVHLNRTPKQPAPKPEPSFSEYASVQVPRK

CERVIGTGWVRC
Binding to SIRP (SIRP): binds to SIRP | CD47 activity / signaling (CD47 [1]): inhibit CD47 activity in vitro

IGWKDFTAYR
Binding to CD47 (CD47 [2]): found to bind CD47

p7N3: CD47-binding peptide from the C-terminal module of TSP1, FIRWMYEGKK
CD47 activity / signaling (CD47 [1]): blocked (or disrupted) CD47 signaling

B1: RANKL: receptor activator of nuclear factor-KB ligand, cytokine for differentiation of macrophages into osteoclasts (protein, UniProt O14788 140-317, looked up)
Tumor necrosis factor ligand …: IRAEKAMVDGSWLDLAKRSKLEAQPFAHLTINATDIPSGSHKVSLSSWYHDRGWAKISNMTFSNGKLIVNQDGFYYLYANICFRHHETSGDLATEYLQLMVYVTKTSIKIPSSHTLMKGGSTKYWSGNSEFHFYSINVGGFFKLRSGEEISIEVSNPSLLDPDQDATYFGAFKVRDID
modifications: GST tag
OC differentiation of CD47−/− cells (CD47−/− macrophages): OC differentiation defect was largely rescued | OC activation as measured by serum CTX, WT vs CD47−/− mice after RANKL (CD47−/− mice): not significantly different

From US20110206696A1, “METHODS FOR INHIBITING BONE LOSS AND BONE METASTASIS” (THE WASHINGTON UNIVERSITY, priority 2010, published 2011)
